Experimental data as given in CN107236025A, “与cd56分子特异性结合的多肽及其应用” (GUANGZHOU YIDAI PHARMACEUTICAL TECHNOLOGY Co Ltd, priority 2017, dated 2017).

B1: SSVYCKQTNKKKRKERKRDTGMKGDIIGTGVNDLAPLRGPIKASTMVAVAQDMAGTGADFLFL (peptide)
chain: SSVYCKQTNKKKRKERKRDTGMKGDIIGTGVNDLAPLRGPIKASTMVAVAQDMAGTGADFLFL

How the values were obtained:
U2 OS细胞 = assay: Cytotoxicity test (CCK8) on U2 OS cells; assay type: cell-based; details: 0.1-100 μg/ml peptide, 72 h; versus medium without peptide; Fig. 5
[1] = In vivo metabolism and distribution in mouse by fluorescence imaging; set-up: species or system 小鼠
[2] = female mouse, tail vein, 400 ul of 1 mg/ml, Fig. 7

Molecule	Toxicity to U2 OS cells (cell viability, CCK8) (U2 OS细胞)	Distribution of peptide fluorescence after 1 h [1, 2]	Distribution of peptide fluorescence after 3.5 h [1, 2]	Route of metabolism ([1]; female mouse, tail vein, concluded from fluorescence imaging)	Peptide residue in liver, spleen, lung and kidney (frozen sections, confocal) ([1]; mouse, after 3.5 h of imaging, Fig. 8)
SSVLTKWYLVCWSLGESISNERRKNFHLVGHWGCLRKLTFVVE [7号多肽]	没有毒性作用	–	–	–	–
B1	没有毒性作用	逐渐富集到小鼠肝、肾和肠	只留存于肝脏和肠腔	主要经过肝脏代谢	各个脏器均有少量的多肽残留
